For experiment [1], the target named is T1, human IL4Rα expressed on 293F-IL4Rα cells (human, UniProt P24394 26-825).
T1 construct: whole, on cells; also called cell surface human IL4Rα
Description: flow cytometry on 293F-IL4Rα cells.

The target of experiment [2] is T2, marmoset monkey IL4Rα-his protein (marmoset monkey).
T2 construct: Custom made by Sino biological; no cleavage site stated; also called cal-IL4Rα-his; Cal-IL4Rα
T2 chain: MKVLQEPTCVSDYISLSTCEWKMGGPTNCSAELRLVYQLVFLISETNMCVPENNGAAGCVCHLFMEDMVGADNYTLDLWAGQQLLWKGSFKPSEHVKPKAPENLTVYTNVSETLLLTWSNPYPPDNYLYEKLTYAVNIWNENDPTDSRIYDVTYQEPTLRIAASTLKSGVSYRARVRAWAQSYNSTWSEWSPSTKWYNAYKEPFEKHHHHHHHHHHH
Description: indirect ELISA on coated cal-IL4Rα-his. Background: ELISA stands for enzyme-linked immunosorbent assay.

The target in experiment [3] is T3, recombinant human IL4Rα-his protein (in house made) (human, UniProt P24394 26-232, limits assumed).
T3 construct: also called Human IL4Ra-his
Description: capture ELISA, biotin-IL4Rα-his.

For experiment [4], the target named is T3, recombinant human IL4Rα-his protein (in …). Description: competitive ELISA, blocks biotin-IL4 binding to coated IL4Rα-his. Here is the method: Serially diluted anti-IL4Rα antibodies or the controls (starting at 80 nM with a 4-fold serial dilution) in 2.5% w/v non-fatty milk in PBST, 100 μl per well, were added to the IL4Rα bound plates, and incubated with the human IL4Rα-his proteins at 37° C. for 40 minutes. Plates were washed 4 times using wash buffer, and then added and incubated for 40 minutes at 37° C. with 100 μl/well of 0.56 nM biotin-labeled human IL4 protein (Sino biological inc., Cat #11846-HNAE). Plates were washed again using wash buffer. Thereafter, the plates were added with 100 μl/well of streptavidin conjugated HRP (1:10000 dilution in PBST buffer, Jackson Immunoresearch, Cat #016-030-084) and incubated for 40 minutes at 37° C. Plates were washed again using wash buffer. Finally, TMB was added and the reaction was stopped using 1M H₂SO₄, and the absorbance was read at 450 nm. Data was analyzed using Graphpad Prism software and IC₅₀ values were reported.

Experiment [5] concerns the target T4, cynomolgus monkey IL4Rα-his protein (cynomolgus monkey, UniProt A0A2K5V580 33-239).
T4 construct: Bought protein; also called Cynomolgus IL4Rα; Cyno-IL4Rα-his; not shown: his tag
Description: indirect ELISA on coated cynomolgus IL4Rα-his.

Experiment [6] concerns the target T3, recombinant human IL4Rα-his protein (in …). Description: capture ELISA: antibody captured on anti-IgG Fc plate, biotin human IL4Rα-his detected.
The target in experiment [7] is T1, human IL4Rα expressed on 293F-IL4Rα …. Description: flow cytometry on 293F-IL4Rα cells, blocked ligand biotin human IL4. On the technique in general: A flow cytometer gives signals particle by particle.
Experiment [8] addresses T3, recombinant human IL4Rα-his protein (in …). Description: competitive ELISA: antibody mixed with biotin human IL4Rα-his, competitor plate-coated Benchmark.
In experiment [9] the target is human IL4Rα expressed on HEK293T-IL4Rα-STAT6-STAT6LUC-LB2 cells (human, UniProt P24394 26-825). Description: cell-based or functional assay.
For experiment [10], the target named is T4, cynomolgus monkey IL4Rα-his protein. Description: indirect ELISA, coated cyno IL4Rα-his.
For experiment [11], the target named is T3, recombinant human IL4Rα-his protein (in …). Description: competitive ELISA, blocks biotin-IL4Rα-his binding to coated Benchmark (competitor). The procedure: The ability of the anti-IL4Rα antibodies of the disclosure to block benchmark-human IL4Rα binding was measured in a competitive ELISA assay. Briefly, the benchmark was coated on 96-well micro plates at 2 μg/mL in PBS, 100 μl per well, and incubated overnight at 4° C. The next day, plates were washed with wash buffer (PBS+0.05% w/v Tween-20, PBST), and blocked with 5% w/v non-fatty milk in PBST for 2 hours at 37° C. tiring plate blocking, the anti-IL4Rα antibodies of the disclosure or controls were diluted with biotin labeled human IL4Rα-his proteins (prepared in-house with SEQ ID NO: 57, 0.55 nM in 2.5% w/v non-fatty milk in PBST), starting at 100 nM with a 4-fold serial dilution, and incubated at 25° C. for 40 minutes. After plate washing, the antibody/IL4Rα-his mixtures were added to benchmark coated plates, 100 μl per well. After incubation at 37° C. for 40 minutes, plates were washed using wash buffer. Then the plates were added and incubated with 100 μl/well streptavidin conjugated HRP for 40 minutes at 37° C. to detect biotin-labeled human IL4Rα-his bound to plates. Plates were washed again using wash buffer. Finally, TMB was added and the reaction was stopped using 1M H₂SO₄, and the absorbance was read at 450 nm. Data was analyzed using Graphpad Prism software and IC₅₀ values were reported.

For experiment [12] the target is unchanged. Description: competitive ELISA: coated human IL4Rα-his, blocked ligand biotin human IL4.
The target of experiment [13] is T1, human IL4Rα expressed on 293F-IL4Rα …. Description: flow cytometry, blocks biotin-IL4 binding to 293F-IL4Rα cells. The procedure: Then, 1×10⁵ cells per well in 96 well-plates were incubated in 100 μL of the anti-IL4Rα antibodies or controls of various concentrations (starting at 80 nM with a 4-fold serial dilution) in FACS buffer for 40 minutes on ice. The plates were washed twice with FACS buffer, and added and incubated for 40 minutes at 4° C. in dark with 100 μl/well 1.67 nM biotin-labeled human IL4 protein (Sino biological inc., Cat #11846-HNAE). The plates were washed twice with FACS buffer, and then added and incubated for 40 minutes at 4° C. in dark with 100 μl/well R-Phycoerythrin Streptavidin (1:500 dilution in FACS buffer, Jackson Immunoresearch, Cat #016-110-084). Cells were washed twice and resuspended in FACS buffer. Fluorescence was measured using a Becton Dickinson FACS Canto II-HTS equipment. Data was analyzed using Graphpad Prism software and IC₅₀ values were reported.

Experiment [14] addresses T2, marmoset monkey IL4Rα-his protein. Description: indirect ELISA, coated cal-IL4Rα-his.
Experiment [15] addresses T3, recombinant human IL4Rα-his protein (in …). Description: SPR (Biacore), antibody captured, IL4Rα-his flowed.
Experiment [16] has as its target T1, human IL4Rα expressed on 293F-IL4Rα …. Description: flow cytometry, 293F-IL4Rα cells. Here is the method: Then, 2×10⁵ cells per well in 96 well-plates were incubated in 100 μL of the anti-IL4Rα antibodies or controls of various concentrations (starting at 80 nM with a 4-fold serial dilution) in FACS buffer for 40 minutes on ice. […] Following an incubation of 40 minutes at 4° C. in dark, cells were washed three times and resuspended in FACS buffer. Fluorescence was measured using a Becton Dickinson FACS Canto II-HTS equipment. Data was analyzed using Graphpad Prism software and EC₅₀ values were reported.

Experiment [17] has as its target T3, recombinant human IL4Rα-his protein (in …). Description: SPR (Biacore), antibody captured, IL4Rα-his flowed. This is another data set of the same source. For orientation: Surface plasmon resonance follows binding to a sensor surface in real time, without labels.

Where two headings read alike, the source gives them in different places.

B1: huB8G11F2B7G5E8-V14 (antibody, human IgG4 S228P, kappa, V domains shown)
VH: EVQLVQSGAEVKKPGATVKISCKVSGFNIKDTYMHWVKQAPGKGLEWMGRIDPTNGYTIYASKFQGKATITADTSSNTAYMELSSLRSEDTAVYHCVSRRPWFAYWGQGTLVTVSS
VL: DIVMTQTPLSLSVTPGQPASISCRSSQSIVHSNGNTYLEWYLQKPGQSPQLLIYKVTNRFSGVPDRFSGSGSGTDFTLKISRVEAEDVGVYYCFQGSHVPYTFGQGTKLEIKR
notes: Humanized, human IgG4/kappa; also called huBSG11F2B7G5E8-V14
For B1, the EC50 (as a rule, the concentration needed to bring the measured effect to its halfway point) in experiment [1] stood at 0.517 nM; in experiment [2], 1.06 nM; in experiment [3], 0.24 nM; in experiment [5], 137 nM; in experiment [6], 0.237 nM; in experiment [10] it was 137 nM. Besides, the EC50 in experiment [14] was found to be 1.06 nM; in experiment [16], 0.52 nM. Moreover, the IC50 (in general, the point on the concentration scale where inhibition reaches its midpoint) in experiment [4] was 1.02 nM; in [7] it was 0.601 nM; in [8] it was 0.763 nM; in experiment [11], 0.76 nM; in experiment [12] it was 1.02 nM; in experiment [13] it was 0.6 nM. The “Inhibition on IL4 induced STAT6 phosphorylation (IC50, nM)” value in experiment [9] is 0.26 nM. In experiment [9], the “Inhibition on IL13 induced STAT6 phosphorylation (IC50, nM)” value is 0.66 nM. Further, the results for the Kd in experiment [15] and in experiment [17] were 3.88 nM and 3.69 nM, respectively. The koff (usually the first-order rate constant of dissociation) in [17] worked out at 0.00113 s⁻¹. For the same molecule, in [17], the kon (usually the rate constant with which the complex forms) was 306000 M⁻¹ s⁻¹.

B2: huB8G11F2B7G5E8-V4 (antibody, human IgG4 S228P, kappa, V domains shown)
VH: EVQLVQSGAEVKKPGATVKISCKASGFNIKDTYMHWVKQAPGKGLEWMGRIDPTNGYTIYASKFQGKATITADTSSNTAYMELSSLRSEDTAVYHCVSRRPWFAYWGQGTLVTVSS
VL: DIVMTQTPLSLSVTPGQPASISCRSSQSIVHSNGNTYLEWYLQKPGQSPQLLIYKVTNRFSGVPDRFSGSGSGTDFTLKISRVEAEDVGVYYCFQGSHVPYTFGQGTKLEIKR
notes: Humanized, human IgG4/kappa; also called huBSG11F2B7G5E8-V4
As to B2, the EC50 in experiment [1] is 0.414 nM; in experiment [2], 0.726 nM; in [3], 0.27 nM; in [5] it was 7.12 nM; in experiment [6], 0.275 nM; in [10], 7.12 nM. For the same molecule, the EC50 in experiment [14] was determined as 0.73 nM; in [16], 0.41 nM. In addition, the half-maximal inhibitory concentration (IC50) in experiment [4] stood at 0.82 nM; in experiment [7] it was 0.513 nM; in experiment [8] it was 1.24 nM; in experiment [11], 1.24 nM; in experiment [12] it was 0.825 nM; in experiment [13], 0.51 nM. The “Inhibition on IL4 induced STAT6 phosphorylation (IC50, nM)” value in experiment [9] was found to be 0.3 nM. For the same molecule, the “Inhibition on IL13 induced STAT6 phosphorylation (IC50, nM)” value in experiment [9] turned out to be 0.81 nM. Besides, the Kd (as a rule, a measure of binding affinity in units of concentration) in experiment [15] worked out at 5.5 nM; in experiment [17], 3.21 nM. Also, the koff in experiment [17] was found to be 0.00185 s⁻¹. Also, the kon in [17] turned out to be 577000 M⁻¹ s⁻¹.

B3: huB8G11F2B7G5E8-V2 (antibody, human IgG4 S228P, kappa, V domains shown)
VH: EVQLVQSGAEVKKPGATVKISCKVSGFNIKDTYMHWVKQAPGKGLEWVGRIDPTNGYTIYASKFQGKATITADTSSNTAYMELSSLRSEDTAVYHCVSRRPWFAYWGQGTLVTVSS
VL: DIVMTQTPLSLSVTPGQPASISCRSSQSIVHSNGNTYLEWYLQKPGQSPQLLIYKVTNRFSGVPDRFSGSGSGTDFTLKISRVEAEDVGVYYCFQGSHVPYTFGQGTKLEIKR
notes: Humanized, human IgG4/kappa; also called huBSG11F2B7G5E8-V2
With B3, the EC50 in experiment [1] came out at 0.426 nM; in experiment [2], 0.799 nM; in experiment [3] it was 0.27 nM; in experiment [5], 914 nM; in [6], 0.274 nM; in experiment [10] it was 914 nM. For the same molecule, the EC50 in experiment [14] was determined as 0.8 nM; in experiment [16], 0.43 nM. Further, the IC50 is 1 nM in experiment [4]; 0.538 nM in experiment [7]; 1.2 nM in experiment [8]; 1.2 nM in [11]; 1 nM in experiment [12]; 0.54 nM in experiment [13]. Also, in experiment [9], the “Inhibition on IL4 induced STAT6 phosphorylation (IC50, nM)” value came out at 0.4 nM. Besides, the “Inhibition on IL13 induced STAT6 phosphorylation (IC50, nM)” value in [9] is 0.63 nM. Also, the Kd was determined as 4.1 nM in experiment [15] and 3.1 nM in experiment [17]. Besides, the koff in experiment [17] was 0.00162 s⁻¹. Further, the kon in [17] is 521000 M⁻¹ s⁻¹.

Values taken from patent US20230105029A1 (CHIA TAI TIANQING PHARMACEUTICAL GROUP, published 2023).
